How the values were obtained:
[1] = target: T1, Rap1SHY (Saccharomyces cerevisiae? (budding …, UniProt P11938 1-827, S392A;H393A;Y394A)); assay: EMSA; 0.5-100 nM protein; higher affinity than Rap1; 20 mM Hepes-KOH pH 8, 100 mM KCl, 10 ug/ml BSA, 1 mM EDTA, 2 mM MgCl2, 5% glycerol, 30 min at room temperature; 0.5 nM 32P duplex; 6% gel run at 4 C; concentrations of active protein (~85% active); conditions: protein: recombinant; tags: N-terminal GST, C-terminal 6xHis (pGST-RAP1 SHY-6xHis); label: 32P 5' end label on one strand (PNK); blunt
T1 sequence: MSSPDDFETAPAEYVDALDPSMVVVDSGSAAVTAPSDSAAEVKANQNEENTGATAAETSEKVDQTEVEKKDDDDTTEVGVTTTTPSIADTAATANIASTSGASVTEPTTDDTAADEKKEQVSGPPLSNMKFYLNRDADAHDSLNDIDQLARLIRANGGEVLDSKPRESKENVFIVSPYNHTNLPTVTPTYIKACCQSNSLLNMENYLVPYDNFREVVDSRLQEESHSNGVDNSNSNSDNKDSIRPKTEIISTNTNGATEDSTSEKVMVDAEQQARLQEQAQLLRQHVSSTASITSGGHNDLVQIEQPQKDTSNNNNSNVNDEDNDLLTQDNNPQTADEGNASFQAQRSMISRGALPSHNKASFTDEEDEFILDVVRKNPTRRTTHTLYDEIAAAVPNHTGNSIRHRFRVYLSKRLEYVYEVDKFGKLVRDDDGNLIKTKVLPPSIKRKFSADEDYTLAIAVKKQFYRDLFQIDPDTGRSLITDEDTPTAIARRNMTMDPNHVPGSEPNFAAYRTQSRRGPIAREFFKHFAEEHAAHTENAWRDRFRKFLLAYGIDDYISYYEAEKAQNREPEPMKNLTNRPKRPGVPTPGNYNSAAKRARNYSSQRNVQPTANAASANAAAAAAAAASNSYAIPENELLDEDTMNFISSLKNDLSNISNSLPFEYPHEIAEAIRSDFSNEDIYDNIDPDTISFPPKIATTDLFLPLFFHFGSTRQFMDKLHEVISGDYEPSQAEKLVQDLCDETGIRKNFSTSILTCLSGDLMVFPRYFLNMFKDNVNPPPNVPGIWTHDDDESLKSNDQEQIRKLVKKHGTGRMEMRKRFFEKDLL

[2] = target: T2, Rap1 (Saccharomyces cerevisiae? (budding …, UniProt P11938 1-827)); assay: EMSA; 0.5-100 nM protein; lower affinity than Rap1SHY; 20 mM Hepes-KOH pH 8, 100 mM KCl, 10 ug/ml BSA, 1 mM EDTA, 2 mM MgCl2, 5% glycerol, 30 min at room temperature; 0.5 nM 32P duplex; 6% gel run at 4 C; concentrations of active protein (~85% active); conditions: protein: recombinant; tags: N-terminal GST, C-terminal 6xHis (Ni-NTA and GST resin purified); label: 32P 5' end label on one strand (PNK); blunt
T2 sequence: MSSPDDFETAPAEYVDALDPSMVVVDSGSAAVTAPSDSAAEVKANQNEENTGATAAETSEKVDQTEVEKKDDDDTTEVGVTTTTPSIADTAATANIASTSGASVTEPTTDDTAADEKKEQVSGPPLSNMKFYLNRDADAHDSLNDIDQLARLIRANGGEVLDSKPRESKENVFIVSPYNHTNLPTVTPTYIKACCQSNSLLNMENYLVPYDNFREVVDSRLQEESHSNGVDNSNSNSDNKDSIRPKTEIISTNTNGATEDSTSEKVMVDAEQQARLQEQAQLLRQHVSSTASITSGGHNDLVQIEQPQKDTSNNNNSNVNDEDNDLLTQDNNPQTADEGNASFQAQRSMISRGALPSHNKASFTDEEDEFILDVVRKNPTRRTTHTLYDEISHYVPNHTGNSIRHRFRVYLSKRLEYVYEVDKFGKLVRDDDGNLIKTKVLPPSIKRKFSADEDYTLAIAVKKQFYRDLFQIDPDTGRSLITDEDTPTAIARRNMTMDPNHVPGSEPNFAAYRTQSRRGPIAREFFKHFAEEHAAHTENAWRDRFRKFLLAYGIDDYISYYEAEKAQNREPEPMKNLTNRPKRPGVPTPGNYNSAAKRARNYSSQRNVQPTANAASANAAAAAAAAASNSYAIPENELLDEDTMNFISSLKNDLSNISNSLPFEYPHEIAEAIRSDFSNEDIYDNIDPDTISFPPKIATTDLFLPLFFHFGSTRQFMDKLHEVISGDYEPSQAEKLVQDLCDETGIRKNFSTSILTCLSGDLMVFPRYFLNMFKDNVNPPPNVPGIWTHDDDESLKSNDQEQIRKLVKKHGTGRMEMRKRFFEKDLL

[3] = target: T1, Rap1SHY; assay: EMSA; 5-50 nM protein; affinity similar to Rap1; 20 mM Hepes-KOH pH 8, 100 mM KCl, 10 ug/ml BSA, 1 mM EDTA, 2 mM MgCl2, 5% glycerol, 30 min at room temperature; 0.5 nM 32P duplex; 6% gel run at 4 C; concentrations of active protein (~85% active); conditions: protein: recombinant; tags: N-terminal GST, C-terminal 6xHis (pGST-RAP1 SHY-6xHis); label: 32P 5' end label on one strand (PNK); blunt
[4] = target: T2, Rap1; assay: EMSA; 5-50 nM protein; affinity similar to Rap1SHY; 20 mM Hepes-KOH pH 8, 100 mM KCl, 10 ug/ml BSA, 1 mM EDTA, 2 mM MgCl2, 5% glycerol, 30 min at room temperature; 0.5 nM 32P duplex; 6% gel run at 4 C; concentrations of active protein (~85% active); conditions: protein: recombinant; tags: N-terminal GST, C-terminal 6xHis (Ni-NTA and GST resin purified); label: 32P 5' end label on one strand (PNK); blunt
[5] = target: T1, Rap1SHY; assay: EMSA; 5-500 nM protein; affinity similar to Rap1; 20 mM Hepes-KOH pH 8, 100 mM KCl, 10 ug/ml BSA, 1 mM EDTA, 2 mM MgCl2, 5% glycerol, 30 min at room temperature; 0.5 nM 32P duplex; 6% gel run at 4 C; concentrations of active protein (~85% active); conditions: protein: recombinant; tags: N-terminal GST, C-terminal 6xHis (pGST-RAP1 SHY-6xHis); label: 32P 5' end label on one strand (PNK); blunt
[6] = target: T2, Rap1; assay: EMSA; 5-500 nM protein; affinity similar to Rap1SHY; 20 mM Hepes-KOH pH 8, 100 mM KCl, 10 ug/ml BSA, 1 mM EDTA, 2 mM MgCl2, 5% glycerol, 30 min at room temperature; 0.5 nM 32P duplex; 6% gel run at 4 C; concentrations of active protein (~85% active); conditions: protein: recombinant; tags: N-terminal GST, C-terminal 6xHis (Ni-NTA and GST resin purified); label: 32P 5' end label on one strand (PNK); blunt
[7] = target: histone H3/H4 tetramers, P61830;P02309; assay: GST pull-down, H3 immunoblot quantitation; conditions: chain shown with the change, read off a plot; for response: 2 μM Rap1 truncated constructs, 2 μM H3/H4, 400 mM NaCl, N = 3, scale: relative H3 signal; for ratio to parent: 0.5 μM GST-SANT, 0.5 μM histones, 400 mM NaCl, N = 2, parent: est. 1.0

B1: TeloA telomeric sequence (dsDNA)
DNA 1: GCCGCACACCCACACACCAGTG
DNA 2: CACTGGTGTGTGGGTGTGCGGC
binding result [1]: binds
binding result [2]: binds

B2: TEF2 promoter Rap1 site (dsDNA)
DNA 1: TGTTGCACCCACACATTTA
DNA 2: TAAATGTGTGGGTGCAACA
binding result [3]: binds
binding result [4]: binds

B3: GAC1 NRTS promoter (dsDNA)
DNA 1: AATAATACATCACATTAACTGTCTATAAGAGGCTGGTAC
DNA 2: GTACCAGCCTCTTATAGACAGTTAATGTGATGTATTATT
dissociation constant (Kd) [5]: ~10 fold vs TEF2 (printed: Kd approximately 10-fold lower than in B; titration range suggests affinity is meant)
dissociation constant (Kd) [6]: ~10 fold vs TEF2 (printed: Kd approximately 10-fold lower than in B; titration range suggests affinity is meant)

B4: GST-Rap1^CΔ, P11938 S392A; H393A; Y394A (protein)
chain: MSSPDDFETAPAEYVDALDPSMVVVDSGSAAVTAPSDSAAEVKANQNEENTGATAAETSEKVDQTEVEKKDDDDTTEVGVTTTTPSIADTAATANIASTSGASVTEPTTDDTAADEKKEQVSGPPLSNMKFYLNRDADAHDSLNDIDQLARLIRANGGEVLDSKPRESKENVFIVSPYNHTNLPTVTPTYIKACCQSNSLLNMENYLVPYDNFREVVDSRLQEESHSNGVDNSNSNSDNKDSIRPKTEIISTNTNGATEDSTSEKVMVDAEQQARLQEQAQLLRQHVSSTASITSGGHNDLVQIEQPQKDTSNNNNSNVNDEDNDLLTQDNNPQTADEGNASFQAQRSMISRGALPSHNKASFTDEEDEFILDVVRKNPTRRTTHTLYDEIAAAVPNHTGNSIRHRFRVYLSKRLEYVYEVDKFGKLVRDDDGNLIKTKVLPPSIKRKFSADEDYTLAIAVKKQFYRDLFQIDPDTGRSLITDEDTPTAIARRNMTMDPNHVPGSEPNFAAYRTQSRRGPIAREFFKHFAEEHAAHTENAWRDRFRKFLLAYGIDDYISYYEAEKAQNREPEPMKNLTNRPKRPGVPTPGNYNSAAKRAR
response ([7]; parent: est. 0.68): 0.47

B5: GST-SANT, P11938 D389A; E390A; I391A (protein)
chain: KASFTDEEDEFILDVVRKNPTRRTTHTLYAAASHYVPNHTGNSIRHRFRVY
ratio to parent [7]: 0.82

B6: GST-SANT, P11938 N401A; S402A; I403A (protein)
chain: KASFTDEEDEFILDVVRKNPTRRTTHTLYDEISHYVPNHTGAAARHRFRVY
ratio to parent [7]: 0.97

B7: GST-SANT, P11938 H398A; T399A; G400A (protein)
chain: KASFTDEEDEFILDVVRKNPTRRTTHTLYDEISHYVPNAAANSIRHRFRVY
ratio to parent [7]: 0.62

B8: GST-SANT, P11938 S392A; H393A; Y394A (protein)
chain: KASFTDEEDEFILDVVRKNPTRRTTHTLYDEIAAAVPNHTGNSIRHRFRVY
ratio to parent [7]: 0.21

B9: GST-Rap1^643Δ S392A; H393A; Y394A (protein)
chain: MSSPDDFETAPAEYVDALDPSMVVVDSGSAAVTAPSDSAAEVKANQNEENTGATAAETSEKVDQTEVEKKDDDDTTEVGVTTTTPSIADTAATANIASTSGASVTEPTTDDTAADEKKEQVSGPPLSNMKFYLNRDADAHDSLNDIDQLARLIRANGGEVLDSKPRESKENVFIVSPYNHTNLPTVTPTYIKACCQSNSLLNMENYLVPYDNFREVVDSRLQEESHSNGVDNSNSNSDNKDSIRPKTEIISTNTNGATEDSTSEKVMVDAEQQARLQEQAQLLRQHVSSTASITSGGHNDLVQIEQPQKDTSNNNNSNVNDEDNDLLTQDNNPQTADEGNASFQAQRSMISRGALPSHNKASFTDEEDEFILDVVRKNPTRRTTHTLYDEIAAAVPNHTGNSIRHRFRVYLSKRLEYVYEVDKFGKLVRDDDGNLIKTKVLPPSIKRKFSADEDYTLAIAVKKQFYRDLFQIDPDTGRSLITDEDTPTAIARRNMTMDPNHVPGSEPNFAAYRTQSRRGPIAREFFKHFAEEHAAHTENAWRDRFRKFLLAYGIDDYISYYEAEKAQNREPEPMKNLTNRPKRPGVPTPGNYNSAAKRARNYSSQRNVQPTANAASANAAAAAAAAASNSYAIPENELLDEDT
response ([7]; parent: est. 1.3): 0.71

— publication PMC6974733, “Rap1‐mediated nucleosome displacement can regulate gene expression in senescent cells without impacting the pace of senescence”
